Laboratory results from publication PMC12290104, “PEAK1 maintains tight junctions in intestinal epithelial cells and resists colitis by inhibiting autophagy-mediated ZO-1 degradation” (Nature Communications, 2025).

B1: FC-tagged PEAK1^WT (Fc fusion, human, UniProt Q9H792 1-1746, looked up)
chain: MSACNTFTEHVWKPGECKNCFKPKSLHQLPPDPEKAPITHGNVKTNANHSNNHRIRNTGNFRPPVAKKPTIAVKPTMIVADGQSICGELSIQEHCENKPVIIGWNRNRAALSQKPLNNNNEDDEGISHVPKPYGNNDSAKKMSDNNNGLTEVLKEIAGLDTAPQIRGNETNSRETFLGRINDCYKRSLERKLPPSCMIGGIKETQGKHVILSGSTEVISNEGGRFCYPEFSSGEESEEDVLFSNMEEEHESWDESDEELLAMEIRMRGQPRFANFRANTLSPVRFFVDKKWNTIPLRNKSLQRICAVDYDDSYDEILNGYEENSVVSYGQGSIQSMVSSDSTSPDSSLTEESRSETASSLSQKICNGGLSPGNPGDSKDMKEIEPNYESPSSNNQDKDSSQASKSSIKVPETHKAVLALRLEEKDGKIAVQTEKEESKASTDVAGQAVTINLVPTEEQAKPYRVVNLEQPLCKPYTVVDVSAAMASEHLEGPVNSPKTKSSSSTPNSPVTSSSLTPGQISAHFQKSSAIRYQEVWTSSTSPRQKIPKVELITSGTGPNVPPRKNCHKSAPTSPTATNISSKTIPVKSPNLSEIKFNSYNNAGMPPFPIIIHDEPTYARSSKNAIKVPIVINPNAYDNLAIYKSFLGTSGELSVKEKTTSVISHTYEEIETESKVPDNTTSKTTDCLQTKGFSNSTEHKRGSVAQKVQEFNNCLNRGQSSPQRSYSSSHSSPAKIQRATQEPVAKIEGTQESQMVGSSSTREKASTVLSQIVASIQPPQSPPETPQSGPKACSVEELYAIPPDADVAKSTPKSTPVRPKSLFTSQPSGEAEAPQTTDSPTTKVQKDPSIKPVTPSPSKLVTSPQSEPPAPFPPPRSTSSPYHAGNLLQRHFTNWTKPTSPTRSTEAESVLHSEGSRRAADAKPKRWISFKSFFRRRKTDEEDDKEKEREKGKLVGLDGTVIHMLPPPPVQRHHWFTEAKGESSEKPAIVFMYRCDPAQGQLSVDQSKARTDQAAVMEKGRAENALLQDSEKKRSHSSPSQIPKKILSHMTHEVTEDFSPRDPRTVVGKQDGRGCTSVTTALSLPELEREDGKEDISDPMDPNPCSATYSNLGQSRAAMIPPKQPRQPKGAVDDAIAFGGKTDQEAPNASQPTPPPLPKKMIIRANTEPISKDLQKSMESSLCVMANPTYDIDPNWDASSAGSSISYELKGLDIESYDSLERPLRKERPVPSAANSISSLTTLSIKDRFSNSMESLSSRRGPSCRQGRGIQKPQRQALYRGLENREEVVGKIRSLHTDALKKLAVKCEDLFMAGQKDQLRFGVDSWSDFRLTSDKPCCEAGDAVYYTASYAKDPLNNYAVKICKSKAKESQQYYHSLAVRQSLAVHFNIQQDCGHFLAEVPNRLLPWEDPDDPEKDEDDMEETEEDAKGETDGKNPKPCSEAASSQKENQGVMSKKQRSHVVVITREVPCLTVADFVRDSLAQHGKSPDLYERQVCLLLLQLCSGLEHLKPYHVTHCDLRLENLLLVHYQPGGTAQGFGPAEPSPTSSYPTRLIVSNFSQAKQKSHLVDPEILRDQSRLAPEIITATQYKKCDEFQTGILIYEMLHLPNPFDENPELKEREYTRADLPRIPFRSPYSRGLQQLASCLLNPNPSERILISDAKGILQCLLWGPREDLFQTFTACPSLVQRNTLLQNWLDIKRTLLMIKFAEKSLDREGGISLEDWLCAQYLAFATTDSLSCIVKILQHR
notes: PEAK1, human cDNA cloned into pTriEx-FC; also called FC-PEAK1; FC-PEAK1^WT; source: HEK293T, transfected, in lysate; also purified from HEK293T (protein A sepharose, glycine pH 2.5 elution)

Assays:
ZO-1 = ZO-1 (UniProt Q07157); test: co-IP of FC-PEAK1, ZO-1 blot; details: reference: FC-PEAK1 wild type; sites Y724
GFP-tagged ZO-1 = molecular target: T1, GFP-tagged ZO-1 (human, UniProt Q07157 1-1748); test: pull-down; 10 μg FC-tagged PEAK1^WT or PEAK1^Y724F purified from HEK293T held on Protein A Sepharose (blocked with 10% FBS); GFP-tagged ZO-1 at 0, 1, 2 and 4 μg, 4 h, 4 °C; immunoblot; details: both partners purified
T1 construct: ZO-1, human cDNA cloned into pTriEx-GFP; last truncation ends at 1748; also called GFP-ZO-1; GFP-tagged ZO-1 (WT); source: HEK293T, transfected, in lysate; also purified from HEK293T (anti-GFP magnetic beads, glycine pH 2.5 elution)
T1 sequence (Q07157 whole entry, the tested form may be a part): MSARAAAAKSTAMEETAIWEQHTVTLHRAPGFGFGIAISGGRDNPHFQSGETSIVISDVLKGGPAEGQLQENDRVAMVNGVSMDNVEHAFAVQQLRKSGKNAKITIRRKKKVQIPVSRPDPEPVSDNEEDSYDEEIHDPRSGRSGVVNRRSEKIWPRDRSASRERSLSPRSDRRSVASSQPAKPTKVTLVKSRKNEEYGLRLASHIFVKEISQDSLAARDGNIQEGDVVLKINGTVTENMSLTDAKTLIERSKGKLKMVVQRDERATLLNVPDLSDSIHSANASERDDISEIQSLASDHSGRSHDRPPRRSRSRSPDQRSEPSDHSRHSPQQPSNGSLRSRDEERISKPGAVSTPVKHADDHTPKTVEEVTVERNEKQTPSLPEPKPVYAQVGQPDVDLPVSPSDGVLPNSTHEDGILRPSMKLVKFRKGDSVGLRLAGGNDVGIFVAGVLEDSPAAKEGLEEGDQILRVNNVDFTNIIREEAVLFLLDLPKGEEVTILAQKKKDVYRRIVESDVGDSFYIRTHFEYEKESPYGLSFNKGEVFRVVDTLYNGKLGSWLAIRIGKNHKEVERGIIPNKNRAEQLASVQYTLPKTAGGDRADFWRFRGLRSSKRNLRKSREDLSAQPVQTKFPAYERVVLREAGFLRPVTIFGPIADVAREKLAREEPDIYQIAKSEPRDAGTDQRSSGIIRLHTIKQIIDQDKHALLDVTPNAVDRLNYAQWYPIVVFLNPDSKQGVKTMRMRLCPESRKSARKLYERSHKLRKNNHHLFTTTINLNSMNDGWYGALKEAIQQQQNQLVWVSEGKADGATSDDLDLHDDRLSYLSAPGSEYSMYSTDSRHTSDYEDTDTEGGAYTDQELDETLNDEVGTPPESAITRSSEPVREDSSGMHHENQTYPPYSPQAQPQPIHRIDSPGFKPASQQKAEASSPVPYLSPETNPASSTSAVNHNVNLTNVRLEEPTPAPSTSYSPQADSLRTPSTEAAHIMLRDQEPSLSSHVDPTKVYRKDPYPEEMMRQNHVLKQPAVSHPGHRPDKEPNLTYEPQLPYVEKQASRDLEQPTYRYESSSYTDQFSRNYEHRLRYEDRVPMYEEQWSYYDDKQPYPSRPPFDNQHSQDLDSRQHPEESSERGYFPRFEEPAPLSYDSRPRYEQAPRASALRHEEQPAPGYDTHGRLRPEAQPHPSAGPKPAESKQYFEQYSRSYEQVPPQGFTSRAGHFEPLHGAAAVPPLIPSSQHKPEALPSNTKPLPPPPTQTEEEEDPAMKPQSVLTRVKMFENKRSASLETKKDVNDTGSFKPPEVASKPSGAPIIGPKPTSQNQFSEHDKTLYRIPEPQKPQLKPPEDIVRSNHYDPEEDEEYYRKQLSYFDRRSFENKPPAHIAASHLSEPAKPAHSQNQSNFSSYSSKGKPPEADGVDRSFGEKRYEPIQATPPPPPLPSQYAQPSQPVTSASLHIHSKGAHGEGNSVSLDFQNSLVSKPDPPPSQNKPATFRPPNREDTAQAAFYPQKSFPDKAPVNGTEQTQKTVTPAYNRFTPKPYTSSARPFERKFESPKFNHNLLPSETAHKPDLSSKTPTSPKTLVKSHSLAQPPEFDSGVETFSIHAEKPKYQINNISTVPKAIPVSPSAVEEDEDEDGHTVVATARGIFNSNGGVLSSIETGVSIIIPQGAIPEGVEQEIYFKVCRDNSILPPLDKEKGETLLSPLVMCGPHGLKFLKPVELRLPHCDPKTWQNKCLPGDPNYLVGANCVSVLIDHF

| Molecule | binding against the reference (ZO-1) | binding result (GFP-tagged ZO-1) |
| --- | --- | --- |
| PEAK1 (from UniProt Q9H792) FC-PEAK1 Y724F | weaker | – |
| B1 | – | binds |
